The values below come from patent US20250270289A1, “SEQUENCE-DEFINED POLYMERS WITH ONE OR MORE AZIDES, METHODS OF MAKING, AND METHODS OF USE THEREOF” (Yale University, priority 2021, published 2025).

The nature of series [1]: Half-life from blood samples by GFP ELISA after injection. The format is in vivo, C57BL/6 mice. As to conditions: intravenous, 50 μg, no ISAz treatment. The method, then: The half-lives of ELP-GFP constructs were calculated from concentrations measured from blood samples collected over the course of a week. The experiments were initiated by injecting 120 μL of 10 μM ELP-GFP intravenously or subcutaneously. At indicated times, 2 μL blood was collected from a tail puncture, and diluted 1:25 in heparin tubes. The blood sample was vortexed briefly and cells were pelleted by centrifugation (2 min at 14,000 g). The soluble fraction was collected and frozen at −20° C. until analysis. ELP-GFP concentrations of the samples were determined using a GFP ELISA Kit (Abcam, cat. #ab171581). The samples were diluted in PBS as needed, to ensure that the concentration fell within the quantifiable range of the standard curve.
Next, experiments were designed to determine if the tighter binding affinity translates into prolonged half-life in C57BL/6J mice. A total of 50 μg of each protein variant (10 μM in PBS) was injected intravenously, and blood was collected after 1, 4, 8, 16 and 24 hours, followed by daily collections through seven days. The blood levels of ELP(nFA)-GFP constructs were measured using a GFP-specific ELISA, and their pharmacokinetic profiles were calculated (see FIGS. 7F and 7G).
Background: In an ELISA, binding on a coated surface is turned into a signal by an enzyme label.

For series [2], the target named is mouse serum albumin (MSA) (Mus musculus, UniProt P07724). Kind of series: Surface plasmon resonance, steady-state affinity. The note with it: not ISAz treated; mean (s.d.) of 4-8 experiments; n.d. = no binding detected. On the technique in general: Surface plasmon resonance follows binding to a sensor surface in real time, without labels.
Chain of mouse serum albumin (MSA) (P07724 25-608): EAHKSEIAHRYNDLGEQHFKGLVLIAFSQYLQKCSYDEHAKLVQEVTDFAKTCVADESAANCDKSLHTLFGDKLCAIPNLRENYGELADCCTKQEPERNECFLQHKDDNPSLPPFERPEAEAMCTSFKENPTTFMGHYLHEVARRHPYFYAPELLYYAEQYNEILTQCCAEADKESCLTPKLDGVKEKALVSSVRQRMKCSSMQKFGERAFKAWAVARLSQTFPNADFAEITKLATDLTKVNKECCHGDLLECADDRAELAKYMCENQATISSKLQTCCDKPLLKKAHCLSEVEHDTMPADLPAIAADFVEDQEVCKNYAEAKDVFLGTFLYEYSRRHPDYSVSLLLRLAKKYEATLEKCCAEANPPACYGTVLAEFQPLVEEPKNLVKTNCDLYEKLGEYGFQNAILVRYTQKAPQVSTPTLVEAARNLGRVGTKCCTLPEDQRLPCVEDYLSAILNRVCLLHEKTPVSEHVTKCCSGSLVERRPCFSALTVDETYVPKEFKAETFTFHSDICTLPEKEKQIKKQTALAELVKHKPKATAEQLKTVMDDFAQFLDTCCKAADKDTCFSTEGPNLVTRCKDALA

B1: ELP(0FA)GFP: ELP-GFP fusion, 10 pentadecapeptide repeats with tyrosine at the guest residue, no conjugated fatty acids (SEQ ID NO:33) (protein)
chain: MSKGPGVPGGGVPGAGVPGYGVPGGGVPGAGVPGYGVPGGGVPGAGVPGYGVPGGGVPGAGVPGYGVPGGGVPGAGVPGYGVPGGGVPGAGVPGYGVPGGGVPGAGVPGYGVPGGGVPGAGVPGYGVPGGGVPGAGVPGYGVPGGGVPGAGVPGYGPGGGG
For orientation: half-life means the time in which the quantity being followed falls by half. Lower therefore signals fast loss. As for B1, in series [1], the half-life is 1.7 h. Also, the “KD MSA” value in series [2] is “no detectable binding”.
